Legend:
[1] = target: EphA4 (homologous receptor, screening at Integral Molecular) (UniProt P54764 20-986, limits assumed); assay: screening at Integral Molecular
[2] = target: T1, mouse EphA2 on mouse tumor cells (CT26, EMT6, MC38, RENCA) (mouse, UniProt Q03145 26-977); assay: flow cytometry, surface binding on CT26 cells (in vitro)
T1 construct: whole, on cells
Experimental: Surface binding of the antibodies to in vitro grown cell lines was assessed by flow cytometry. Tumor cells were detached from their culture plate using Versene and counted. Cells were staining in BSA-containing buffer with primary antibody for 30 minutes at 4° C. with shaking. Following, cells were washed and stained with secondary PE-labeled antibody for 30 minutes at 4° C. with shaking. Before analysis on an Intellicyt iQue3 scanner, cells were counterstained with DAPI. MedFI values from live, single cells was expressed as fold over isotype control.

[3] = target: T2, EphA4_ECD (aa 23-546), full ECD, displayed on yeast (human, UniProt P54764 23-546); assay: yeast surface display, flow cytometry titration of AB-008873
T2 construct: also called EphA4 full ECD; not shown: Aga2 fusion partner followed by an internal HA tag; C-terminal Myc tag
Experimental: Yeast cells were cultured in SDCAA (Teknova, S0543) and induced with SGCAA (Teknova, 50542). Cells were stained with pairs of primary and secondary antibodies. […] Chicken IgY anti-cMyc (Life technologies A21281) and Goat anti Chicken IgY FITC (Life technologies A11039) were used to assess expression levels. The analysis was run on the iQue3 flow cytometer. […] The FN2 domain of EphA2 alone is sufficient to mediate binding and expresses at high levels. […] FIG. 6. […] FN2 domain alone also has high relative expression. […] Swapping the FN1 domain from EphA4 into EphA2 enables binding of the epitope (diamond). Binding is lost when the FN2 domain from EphA4 is swapped into EphA2.

[4] = target: T3, FcGR1 (human, UniProt P12314 16-374); assay: flow cytometry, 6,000 human membrane proteins expressed on the surface of HEK293 cells
T3 construct: whole, on cells; An Fc receptor
T3 sequence (P12314 16-374): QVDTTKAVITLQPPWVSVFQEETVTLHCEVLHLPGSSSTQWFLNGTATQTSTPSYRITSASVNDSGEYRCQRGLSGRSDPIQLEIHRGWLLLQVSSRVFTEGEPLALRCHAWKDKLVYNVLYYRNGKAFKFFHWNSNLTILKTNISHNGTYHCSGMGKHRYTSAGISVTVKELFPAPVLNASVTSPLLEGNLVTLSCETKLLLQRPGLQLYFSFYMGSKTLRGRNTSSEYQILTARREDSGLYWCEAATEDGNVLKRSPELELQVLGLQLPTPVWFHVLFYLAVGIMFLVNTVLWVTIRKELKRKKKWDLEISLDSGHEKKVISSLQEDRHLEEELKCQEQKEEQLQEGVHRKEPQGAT

T2 sequence (P54764 23-546): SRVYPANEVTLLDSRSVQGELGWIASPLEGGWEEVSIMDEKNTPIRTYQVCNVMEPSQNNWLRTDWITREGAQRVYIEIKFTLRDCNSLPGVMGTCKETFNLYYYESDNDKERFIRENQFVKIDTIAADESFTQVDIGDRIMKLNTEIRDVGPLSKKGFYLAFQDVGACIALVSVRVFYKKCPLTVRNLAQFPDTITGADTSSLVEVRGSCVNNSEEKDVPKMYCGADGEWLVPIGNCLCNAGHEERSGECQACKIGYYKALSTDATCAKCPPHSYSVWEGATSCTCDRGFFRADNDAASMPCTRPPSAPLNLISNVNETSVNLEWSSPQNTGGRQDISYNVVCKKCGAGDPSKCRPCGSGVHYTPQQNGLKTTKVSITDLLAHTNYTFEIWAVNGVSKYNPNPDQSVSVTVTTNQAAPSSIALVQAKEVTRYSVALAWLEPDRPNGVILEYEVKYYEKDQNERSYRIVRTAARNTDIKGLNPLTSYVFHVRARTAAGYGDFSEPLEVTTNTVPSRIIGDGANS
EphA4 (homologous receptor, screening at Integral Molecular), sequence (P54764 20-986 limits assumed): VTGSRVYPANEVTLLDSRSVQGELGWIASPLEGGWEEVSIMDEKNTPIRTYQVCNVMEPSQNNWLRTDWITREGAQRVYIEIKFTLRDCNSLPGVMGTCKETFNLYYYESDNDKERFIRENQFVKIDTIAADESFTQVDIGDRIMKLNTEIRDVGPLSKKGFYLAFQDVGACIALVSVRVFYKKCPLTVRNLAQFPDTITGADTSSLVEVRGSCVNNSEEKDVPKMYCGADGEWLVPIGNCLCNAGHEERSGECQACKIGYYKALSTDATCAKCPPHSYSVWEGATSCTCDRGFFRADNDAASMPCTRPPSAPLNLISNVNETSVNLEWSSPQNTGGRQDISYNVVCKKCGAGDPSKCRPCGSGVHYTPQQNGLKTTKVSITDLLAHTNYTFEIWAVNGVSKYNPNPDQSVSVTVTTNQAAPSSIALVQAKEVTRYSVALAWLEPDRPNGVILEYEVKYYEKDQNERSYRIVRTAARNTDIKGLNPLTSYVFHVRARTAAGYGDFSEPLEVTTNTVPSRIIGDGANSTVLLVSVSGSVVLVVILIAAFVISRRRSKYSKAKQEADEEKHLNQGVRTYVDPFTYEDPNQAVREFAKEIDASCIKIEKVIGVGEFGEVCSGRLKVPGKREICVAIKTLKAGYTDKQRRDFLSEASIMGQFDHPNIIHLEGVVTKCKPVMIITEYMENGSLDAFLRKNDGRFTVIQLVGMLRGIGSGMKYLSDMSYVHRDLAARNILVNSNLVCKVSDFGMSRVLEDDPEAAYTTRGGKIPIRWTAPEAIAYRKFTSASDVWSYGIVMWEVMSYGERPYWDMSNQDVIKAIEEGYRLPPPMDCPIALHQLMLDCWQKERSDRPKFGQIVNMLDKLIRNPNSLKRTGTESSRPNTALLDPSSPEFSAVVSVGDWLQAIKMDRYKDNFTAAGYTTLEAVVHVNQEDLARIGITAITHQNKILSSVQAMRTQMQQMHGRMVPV
T1 sequence (Q03145 26-977): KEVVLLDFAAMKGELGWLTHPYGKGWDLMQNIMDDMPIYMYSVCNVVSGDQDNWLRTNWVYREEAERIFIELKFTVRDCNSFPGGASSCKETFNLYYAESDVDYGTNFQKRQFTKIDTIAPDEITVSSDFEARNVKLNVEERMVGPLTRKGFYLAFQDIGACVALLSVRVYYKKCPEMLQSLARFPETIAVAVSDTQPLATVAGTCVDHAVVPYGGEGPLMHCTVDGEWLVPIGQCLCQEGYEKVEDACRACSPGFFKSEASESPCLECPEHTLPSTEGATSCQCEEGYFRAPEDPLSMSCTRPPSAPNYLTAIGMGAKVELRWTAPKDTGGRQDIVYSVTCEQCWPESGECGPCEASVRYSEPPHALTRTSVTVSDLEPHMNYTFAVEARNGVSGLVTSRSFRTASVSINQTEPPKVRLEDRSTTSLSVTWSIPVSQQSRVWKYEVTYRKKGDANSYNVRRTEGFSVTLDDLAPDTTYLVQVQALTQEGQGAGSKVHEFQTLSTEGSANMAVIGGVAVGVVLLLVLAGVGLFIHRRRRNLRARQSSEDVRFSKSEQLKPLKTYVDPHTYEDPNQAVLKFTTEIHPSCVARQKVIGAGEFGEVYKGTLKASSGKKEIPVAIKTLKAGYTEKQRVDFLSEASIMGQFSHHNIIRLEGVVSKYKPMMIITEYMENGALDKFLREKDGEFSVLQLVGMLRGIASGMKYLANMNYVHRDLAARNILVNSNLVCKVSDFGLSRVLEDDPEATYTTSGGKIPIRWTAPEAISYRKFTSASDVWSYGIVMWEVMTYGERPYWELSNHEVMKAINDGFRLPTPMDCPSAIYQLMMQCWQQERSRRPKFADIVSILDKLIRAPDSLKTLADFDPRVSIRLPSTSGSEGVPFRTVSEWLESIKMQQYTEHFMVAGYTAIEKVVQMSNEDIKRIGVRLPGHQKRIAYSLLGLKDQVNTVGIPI

B1: AB-008873 (mouse IgG2a format) (antibody)
heavy: QVQLQQWGAGLLKPSETLSLTCAVYGGSFSDYYWSWIRQPPGKGLEWIGEVNHRGSINYNNYNPSLKSRVTISVDPSKNQFSLKLTSVTAADTAVYYCAKPLRPHCTNGVCYSGDAFDIWGQGTMVTVASAKTTAPSVYPLAPVCGDTTGSSVTLGCLVKGYFPEPVTLTWNSGSLSSGVHTFPAVLQSDLYTLSSSVTVTSSTWPSQSITCNVAHPASSTKVDKKIEPRGPTIKPCPPCKCPAPNLLGGPSVFIFPPKIKDVLMISLSPIVTCVVVDVSEDDPDVQISWFVNNVEVHTAQTQTHREDYNSTLRVVSALPIQHQDWMSGKEFKCKVNNKDLPAPIERTISKPKGSVRAPQVYVLPPPEEEMTKKQVTLTCMVTDFMPEDIYVEWTNNGKTELNYKNTEPVLDSDGSYFMYSKLRVEKKNWVERNSYSCSVVHEGLHNHHTTKSFSRTPG
light: SYVLTQPPSVSVAPGQTARITCGGNNIGSKNVHWYQQKPGQAPVLVVYDDSDRPSGIPEQFSGSNSGNTATLTISRVEAGDEADYYCQVWDSSSDHLVFGGGTKLTVLGQPKSSPSVTLFPPSSEELETNKATLVCTITDFYPGVVTVDWKVDGTPVTQGMETTQPSKQSNNKYMASSYLTLTARAWERHSSYSCQVTHEGHTVEKSLSRADCS
Q: Does B1 bind [1]?
A: no binding

Q: What about the “fold over isotype control (MedFI)” value [2] of the same binder?
A: 16 fold

Q: Does B1 bind [3]?
A: no binding (tested: about 300 nM)

Q: Does B1 bind [4]?
A: binds
